Measured values taken from the supplement of paper PMC10567573.

B1: CHMP4C (parent)
chain: TNIRLPNVPSSSLPAQPNRKPGMS
B2: SCNN1D (parent)
chain: RRPSPVLRHLELLDEFARENIDSL

Variants of: B1
Assay: protein stability index of a GFP-peptide fusion (GPS, HEK-293T) (PSI 1-6); higher = more stable
Details: c terminus: a fixed tail appended
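Further: lentivirally expressed fusions sorted by FACS into six bins by GFP to DsRed ratio, PSI derived from sequencing read proportions per bin multiplied by bin number.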

Protein stability index: each site, then its substitutions
S24: T 4.62, Y 4.34, M 3.99, I 4.27, G 4.14, N 4.57, C 4.2, R 4.67, A 4.48, E 4.83, W 3.8, L 4.15, D 3.96, H 4.5, F 4.21, K 4.94, V 4.86, P 4.81, Q 4.69
M23: Y 4.7, Q 5.23, A 5.03, L 4.88, T 5.17, N 5.13, F 4.42, E 5.61, S 5.17, R 4.04, D 5.58, W 3.96, K 4.37, V 4.82, I 4.37, P 4.28, G 5.2, H 4.92, C 4.84
P21: A 5, E 4.5, C 4.24, T 4.47, N 4.11, S 4.41, F 4.32, V 4.14, D 4.59, I 4.31, L 4.29, K 4.65, G 4.31, Y 4.05, R 4.94, H 4.45, Q 4.96, W 3.4, M 4.32
K20: Y 4.02, W 3.41
G22: M 4.2, D 4.78, S 4.08, I 4.39, K 4.64, N 5.03, W 3.75, Y 4.01, T 4.21, V 4.29, Q 4.88, H 4.32, A 4.48, R 4.92, E 4.68, P 4.24, C 4.4, F 4.2, L 4.22

Variants of: B2
Assay: as above
Details: c terminus: a fixed tail appended

Protein stability index, by site and new letter:
R2: C 3.38, Y 1.63, A 3.98, Q 3.21, I 2.6, F 2.22, L 1.94, E 3.22, W 1.78, G 3.52, D 3.41, M 2.5, N 3.25, K 2.85, P 4.61, H 2.68, S 4.32, V 2.93, T 3.55
P5: C 2.17, I 2.27, A 2.4, K 3.59, G 3.53, N 3.22, E 3.77, L 2.06, Q 4.62, D 3.08, H 2.97, M 2.5, F 2.19
P3: T 2.83, M 2.26, F 1.88, R 2.85, Y 2.31, A 2.35, S 2.72, C 2.73, D 2.74, Q 1.92, W 1.76, K 3.06, I 1.96, E 2.38, L 2.42, G 2.75, H 1.96, N 3.06, V 1.44
S4: I 2.67, F 2.47, Q 3.89, V 2.82, E 3.61, T 3.15, Y 2.5, C 2.99, L 2.66, G 2.65, K 3.14, R 2.87, N 2.34, M 2.88, W 2.35, H 2.14, P 3.17, D 3.68, A 2.63
R1: Y 1.72, K 2.92, A 2.1, H 2.43, I 2.1, L 2.21, G 2.46, Q 2.69, T 2.38, P 2.58, V 2.36, F 1.99, E 3.36, D 2.86, W 2.18, N 2.5, S 2.63, M 2.19, C 2
